This note sets out measurements from publication PMC6479699, “Structural and Functional Characterization of the Human Thymidylate Synthase (hTS) Interface Variant R175C, New Perspectives for the Development of hTS Inhibitors” (Molecules, 2019).

The series deals with the molecule itself. Description: SEC; HiLoad 16/600 Superdex 75pg column, last purification step; sample dialysed in buffer A (50 mM Tris pH 6.9, 300 mM KCl) beforehand. (SEC sorts molecules by how far they enter the pores of the column.)

B1: His6-tag human thymidylate synthase variant R175C (enzyme, UniProt P04818 1-313, looked up)
chain: MPVAGSELPRRPLPPAAQERDAEPRPPHGELQYLGQIQHILRCGVRKDDRTGTGTLSVFGMQARYSLRDEFPLLTTKRVFWKGVLEELLWFIKGSTNAKELSSKGVKIWDANGSRDFLDSLGFSTREEGDLGPVYGFQWRHFGAEYRDMESDYSGQGVDQLQRVIDTIKTNPDDCRIIMCAWNPRDLPLMALPPCHALCQFYVVNSELSCQLYQRSGDMGLGVPFNIASYALLTYMIAHITGLKPGDFIHTLGDAHIYLNHIEPLKIQLQREPRPFPKLRILRKVEKIDDFKAEDFQIEGYNPHPTIKMEMAV
modifications: Cys195 oxidized to S-oxy-cysteine (CSX195) in all subunits of the crystal structure
notes: human thymidylate synthase (hTS, EC 2.1.1.45); Arg175 replaced by cysteine; In the crystal the chains were traced apart from the first 22-23 N-terminal residues and the C-terminal valine; also called HT-hTS R175C; hTS R175C; not shown: His6, N-terminal, kept
With B1, the stoichiometry N (commonly the number of molecules, sites or subunits per partner or assembly) worked out at 2.
